From the supplement of paper PMC10126150
± gives the standard deviation of the averaged measurements.

System: ATP
Assay: switch fluorescence ratio, 500 uM ATP over buffer (Cy3 cluster intensity, sum of 5 cycles each) (fold (ratio)); higher = stronger signal-on switching upon ATP binding; sequences stand for … in TCGTCGGCAGCGTCAGATGTGTATAAGAGACAGTTTTTTTTTTTTTTTTTTTTTTTTT…TC
Conditions: aptamer strand: ATP DNA aptamer (quencher-CACCTGGGGGAGTATTGCGGAGGAAGG + anchor), 100 nM annealed; ATP concentration: 500 uM
Procedure, shortened: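 The quencher-labelled ATP aptamer, at 100 nM, was annealed to Cy3-labelled switching-strand clusters on a modified Illumina MiSeq flow-cell. The clusters were imaged in selection buffer, then after 15 min with 500 uM ATP at 22 °C, and this buffer/ATP cycle ran five times with NaOH stripping and re-annealing between runs. Per-cluster fluorescence ratios, summed target-cycle over summed buffer-cycle Cy3 intensity, were averaged per switch-domain sequence. Clusters outside 100-1000 RFU were excluded.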
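Also: ATP exposure 15 min at 22 °C before imaging.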

Sequence | switch fluorescence ratio
CAGGCAGATG | 1.01 ± 0.015
CAGGCAGGGT | 0.969 ± 0.035
CAGGCAGTAA | 1.18 ± 0.073
CAGGCATTAT | 1.08 ± 0.043
CAGGCCGGAG | 1.01 ± 0.022
CAGGCGACGG | 1.01 ± 0.033
CAGGCGGCG | 0.991 ± 0.017
CAGGCTATTT | 1.03 ± 0.049
CAGGCTGACC | 0.974 ± 0.025
CAGGCTGGGC | 0.9862 ± 0.008
CAGGCTTTTA | 0.983 ± 0.028
CAGGGAATAG | 1.07 ± 0.049
CAGGGACCTG | 1.03 ± 0.032
CAGGGACGGC | 1.02 ± 0.012
CAGGGACTGG | 1 ± 0.072
CAGGGAGAGG | 1 ± 0.011
CAGGGATAGT | 1.26 ± 0.32
CAGGGCAAGG | 1.12 ± 0.08
CAGGGGGCAG | 1.05 ± 0.07
CAGGGGGCGT | 0.984 ± 0.0037
CAGGGGGCTA | 1.01 ± 0.067
CAGGGGGGGA | 1.01 ± 0.044
CAGGGGTATA | 1.02 ± 0.024
CAGGGGTGGG | 0.999 ± 0.058
CAGGGTGGTA | 0.9934 ± 0.0048

Sequence | switch fluorescence ratio
CAGGGTGGTC | 1.04 ± 0.0048
CAGGGTGTGG | 0.976 ± 0.014
CAGGGTGTTG | 0.964 ± 0.041
CAGGTAAGCG | 0.969 ± 0.051
CAGGTATGT | 0.991 ± 0.015
CAGGTCCGGG | 1.02 ± 0.018
CAGGTCCTTT | 1.01 ± 0.025
CAGGTCGGCT | 0.995 ± 0.052
CAGGTGAGAC | 1.31 ± 0.04
CAGGTTGGAG | 1.15 ± 0.24
CAGGTTTAAA | 0.992 ± 0.034
CAGGTTTAAG | 0.975 ± 0.055
CAGTAAAAGT | 0.983 ± 0.031
CAGTAAGTCT | 1.05 ± 0.076
CAGTAATGTT | 0.994 ± 0.033
CAGTAATTGC | 1.05 ± 0.023
CAGTAATTGT | 0.9856 ± 0.0029
CAGTACCTAA | 1.039 ± 0.0019
CAGTACGGTT | 1 ± 0.037
CAGTACTGGT | 0.99384 ± 0.00024
CAGTAGAATA | 1.02 ± 0.022
CAGTAGTTAT | 0.996 ± 0.011
CAGTATCCTT | 1.027 ± 0.003
CAGTATCGGA | 0.9814 ± 0.008
CAGTATGGTA | 1 ± 0.012

Sequence | switch fluorescence ratio
CAGTATGTAG | 0.957 ± 0.02
CAGTATGTCC | 0.966 ± 0.035
CAGTATTAGA | 1.003 ± 0.0037
CAGTCCATTA | 1.011 ± 0.0093
CAGTCCTGTA | 1 ± 0.042
CAGTCGACGG | 0.993 ± 0.011
CAGTCGCGTG | 0.993 ± 0.018
CAGTGAGACT | 1.02 ± 0.037
CAGTGCAGCG | 1.06 ± 0.057
CAGTGCGCTT | 1.1 ± 0.085
CAGTGGACCG | 1.004 ± 0.0011
CAGTGGACGG | 0.971 ± 0.042
CAGTGGATCG | 1.008 ± 0.0011
CAGTGGCGTA | 1.01 ± 0.011
CAGTGTCTGA | 1.05 ± 0.037
CAGTGTGTGC | 1.03 ± 0.015
CAGTGTTATC | 1.01 ± 0.013
CAGTGTTCCG | 0.977 ± 0.042
CAGTTACGAT | 1.03 ± 0.032
CAGTTAGTAC | 1.1 ± 0.018
CAGTTATAAT | 1.04 ± 0.016
CAGTTGGGTT | 1.02 ± 0.041
CAGTTGTGGT | 0.998 ± 0.011
CAGTTTAAGG | 1.01 ± 0.024
CAGTTTGAGT | 1.006 ± 0.0014

Sequence | switch fluorescence ratio
CAGTTTTGGC | 1.01 ± 0.025
CATAAAATCG | 0.9666 ± 0.0091
CATAAAGGAT | 0.97 ± 0.011
CATAACTAAA | 1 ± 0.012
CATAACTATT | 0.989 ± 0.015
CATAAGCCTC | 1.03 ± 0.056
CATAAGGCTC | 1 ± 0.02
CATAATATTA | 0.9698 ± 0.0032
CATAATCGCA | 1.04 ± 0.021
CATACACCTT | 1.21 ± 0.032
CATACCGGGG | 1.025 ± 0.0049
CATACTTCAT | 1.049 ± 0.0063
CATAGAAAAT | 0.965 ± 0.0069
CATAGAAGCT | 0.976 ± 0.048
CATAGAATTT | 0.978 ± 0.084
CATAGATCTG | 1.01 ± 0.028
CATAGATGTC | 0.989 ± 0.063
CATAGCCTAA | 1.008 ± 0.0031
CATAGGAGGG | 0.977 ± 0.056
CATAGGATTG | 1.0163 ± 0.00094
CATAGGGTTC | 0.9954 ± 0.0089
CATAGTTCTG | 0.981 ± 0.028
CATATCCAGG | 1.34 ± 0.017
CATATCCCCT | 1.03 ± 0.045
CATATCGCCC | 1.06 ± 0.039
